Measurements reported in patent US20260234211A1 (GUANGDONG RAYNOVENT BIOTECH, published 2026).
Bridge positions count the residues as written; N and C are the ends. Square brackets hold non-standard residues; d marks the D form. Ends that are not written are not given here. Aib = CC(C)(N)C(=O)O

Tests used:
Experiment in all cases: cell-based or functional assay
GLP-1 receptor (GLP-1R) = target: GLP-1 receptor (GLP-1R)
GCG receptor (GCGR) = target: GCG receptor (GCGR)
GIP receptor (GIPR) = target: T1, GIP receptor (GIPR)
T1 sequence (P48546 whole entry, species assumed, looked up): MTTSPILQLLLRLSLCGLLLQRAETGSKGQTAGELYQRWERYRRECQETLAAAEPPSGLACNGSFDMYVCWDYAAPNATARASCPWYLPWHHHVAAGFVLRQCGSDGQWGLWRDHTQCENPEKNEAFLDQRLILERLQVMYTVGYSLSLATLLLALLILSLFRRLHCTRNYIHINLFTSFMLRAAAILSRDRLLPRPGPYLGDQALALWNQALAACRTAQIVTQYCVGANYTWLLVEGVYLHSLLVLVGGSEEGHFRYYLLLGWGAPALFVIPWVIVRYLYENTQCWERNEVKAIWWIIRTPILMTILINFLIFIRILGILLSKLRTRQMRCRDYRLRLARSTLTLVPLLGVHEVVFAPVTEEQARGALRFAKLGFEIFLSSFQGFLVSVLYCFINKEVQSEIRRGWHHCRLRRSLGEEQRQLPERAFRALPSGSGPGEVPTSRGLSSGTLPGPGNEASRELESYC

B1: Example 4 (peptide)
peptide: H[Aib]HGTFTSDYSIYLEKKYA[Aib]EFVKWLLKGGPSSGAPPPS-NH2
modifications: bridge 24-28; not fully specified (residues 24, 28, bridges); also: staple structure only in drawing
- GLP-1 EC50 (nM), cAMP assay on HEK293 cells with GLP-1R (GLP-1 receptor (GLP-1R)): 0.023 nM
- GCG EC50 (nM), cAMP assay on HEK293 cells with GCGR (GCG receptor (GCGR)): 0.143 nM
- GIP-1 EC50 (nM), cAMP assay on CHO cells with GIPR (GIP receptor (GIPR)): 0.016 nM

B2: Example 5 (peptide)
peptide: H[Aib]HGTFTSDYSIYLEKKYA[Aib]KFVQWLLEGGPSSGAPPPS-NH2
modifications: bridge 17-21; not fully specified (residues 17, 21, bridges); also: staple structure only in drawing
- GLP-1 EC50 (nM), cAMP assay on HEK293 cells with GLP-1R (GLP-1 receptor (GLP-1R)): 0.029 nM
- GCG EC50 (nM), cAMP assay on HEK293 cells with GCGR (GCG receptor (GCGR)): 0.012 nM
- GIP-1 EC50 (nM), cAMP assay on CHO cells with GIPR (GIP receptor (GIPR)): 0.007 nM
